Assay results from US11542488B2, “Sortase synthesized chimeric antigen receptors” (Novartis AG, priority 2014, dated 2023).

Legend:
CD19 = target: T1, CD19 (Homo sapiens, UniProt P15391); assay: Flow cytometry labeling of K562 cells with scFV19 conjugated to TAMRA; format: binding
T1 construct: expressed in transfected cells; host or cells: K562
T1 sequence (P15391 20-556): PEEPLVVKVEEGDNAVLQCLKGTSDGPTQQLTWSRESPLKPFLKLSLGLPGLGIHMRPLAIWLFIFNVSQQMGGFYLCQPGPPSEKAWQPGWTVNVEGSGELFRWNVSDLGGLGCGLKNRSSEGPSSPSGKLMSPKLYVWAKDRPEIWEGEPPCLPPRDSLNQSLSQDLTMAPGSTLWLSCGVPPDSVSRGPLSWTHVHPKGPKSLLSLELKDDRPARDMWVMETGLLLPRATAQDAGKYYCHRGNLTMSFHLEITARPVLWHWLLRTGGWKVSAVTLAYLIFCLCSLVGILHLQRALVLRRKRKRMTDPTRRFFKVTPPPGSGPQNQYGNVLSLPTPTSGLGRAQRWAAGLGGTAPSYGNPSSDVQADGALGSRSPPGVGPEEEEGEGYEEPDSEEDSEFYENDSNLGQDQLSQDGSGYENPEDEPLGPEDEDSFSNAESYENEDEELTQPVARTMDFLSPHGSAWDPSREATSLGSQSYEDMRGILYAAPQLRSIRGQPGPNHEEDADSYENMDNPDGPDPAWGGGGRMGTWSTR
Source text: As a control, scFV19 subjected to the same reaction conditions to label the scFV with TAMRA, but omitting sortase (scFV19.LPETG+TAMRA_not conjugated (SEQ ID NO: 112)) was used. Flow cytometry analysis comparing cell labeling is shown.
To determine whether the presence of the sortase-recognition motif interferes with the ability of the scFV19 to recognize CD19, the scFV19.LPETGG.His8 (“LPETGG” and “His8” disclosed as SEQ ID NOS 21 and 111, respectively) was labeled with the G3K(TAMRA) peptide (SEQ ID NO:23) using the mutant sortase A as described in Example 1. […] Upon reaction, each of the preparations were filtered through a desalting column to remove unreacted G3K(TAMRA) peptide (SEQ ID NO: 23). Different concentrations of the scFV19.LPETG3K(TAMRA) conjugate (“LPETG3K” disclosed as SEQ ID NO: 250) and unconjugated control were then used to label untransduced K562 cells or K562 overexpressing CD19. […] Thus, the results presented herein confirm that the scFV19.LPETGG.His8 substrate (“LPETGG” and “His8” disclosed as SEQ ID NOS 21 and 111, respectively) for sortase is functional and that the sortase labeling strategy can be used to create new tools for FACS staining.

[1] = tested on: scFV directed to CD19 harboring a LPXTG sortase-recognition motif (scFV19); assay: Sortase-mediated labeling of scFV19 with GGGK(TAMRA) peptide, reducing SDS-PAGE and fluorescent scanning; format: biochemical; settings: for calcium requirement for labeling of scFV19 with TAMRA peptide: absence or presence of 10 mM calcium
Source text: Characterization of the enzyme was initially done in vitro using purified proteins. As the reaction substrate, a scFV directed to CD19 (scFV19) comprising a sortase A recognition motif (LPETGG, SEQ ID NO: 21) and a His8 (SEQ ID NO: 111) purification handle at the C-terminus (also referred to herein as scFv19.LPETGG.His8 (“LPETGG” and “His8” disclosed as SEQ ID NOS 21 and 111, respectively)) was cloned, expressed, and purified. This is the same scFV19 that was used in subsequent examples to test site-specific attachment to live cells using sortase:
As a nucleophile for these test reactions fluorescently labeled peptide: GGGK(TAMRA) (KRUEGANA-001-EXP022) (SEQ ID NO:23) was synthesized and purified. The fluorophore moiety allowed for convenient monitoring of the reaction by SDS-PAGE followed by fluorescent scanning.
The activities of mutant and wild-type (SrtA aureus_His6SrtA26-206 (“His6” disclosed as SEQ ID NO: 110)) sortases were compared side-by-side in the absence or presence of 10 mM calcium in 50 mM Tris-Cl, pH 7.4, 150 mM NaCl buffer, using final concentrations of 40 μM sortase, 20 μM scFV.LPETG.His8 (“LPETG” and “His8” disclosed as SEQ ID NOS 112 and 111, respectively), and 1 mM GGGK(TAMRA) (SEQ ID NO:23). The reactions were incubated at 37° for different periods of time (as indicated in FIG. 2), and analyzed by reducing SDS-PAGE followed by fluorescent scanning (using a ChemiDoc gel imaging system from BioRad) and coomassie staining.
The activity of mutant sortase A was active in culture media (RMPI supplemented with 1% FBS) was determined using the same reaction conditions as in Example 2. The presence of the fluorescent bands indicates the successful coupling of scFv19 to the TAMRA-labeled peptide in the presence of cell culture media. […] As in Example 2, the reaction was complete upon 45′ incubation at 37° C. (FIG. 3). […]

[2] = 40 μM sortase, 20 μM scFV, 1 mM GGGK(TAMRA), 37°

B1: scFV19.LPETGG.His8: scFV directed to CD19 comprising a sortase A recognition motif (LPETGG) and a His8 handle at the C-terminus (SEQ ID NO: 22) (protein)
scFv: METDTLLLWVLLLWVPGSTGEIVMTQSPATLSLSPGERATLSCRASQDISKYLNWYQQKPGQAPRLLIYHTSRLHSGIPARFSGSGSGTDYTLTISSLQPEDFAVYFCQQGNTLPYTFGQGTKLEIKGGGGSGGGGSGGGGSQVQLQESGPGLVKPSETLSLTCTVSGVSLPDYGVSWIRQPPGKGLEWIGVIWGSETTYYSSSLKSRVTISKDNSKNQVSLKLSSVTAADTAVYYCAKHYYYGGSYAMDYWGQGTLVTVSSLPETGGLDVLFEGPHHHHHHHH
modifications: C-terminal LPETGG sortase motif and His8 tag
For B1, the “functionality of scFV19 carrying the sortase-recognition motif (recognition of CD19)” value (CD19; K562 cells expressing CD19) was “functional”.

B2: wild-type sortase: wild-type S. aureus sortase A (His6SrtA26-206) (protein, UniProt Q2FV99 26-206, looked up, fragment)
chain: KPHIDNYLHDKDKDEKIEQYDKNVKEQASKDKKQQAKPQIPKDKSKVAGYIEIPDADIKEPVYPGPATPEQLNRGVSFAEENESLDDQNISIAGHTFIDRPNYQFTNLKAAKKGSMVYFKVGNETRKYKMTSIRDVKPTDVGVLDEQKGKDKQLTLITCDDYNEKTGVWEKRKIFVATEVK
modifications: His6 tag
In the case of B2, the “fluorescence at 15 minutes of incubation” value [1, 2] is reported as “no fluorescence was detected” and the “calcium requirement for labeling of scFV19 with TAMRA peptide” value [1, 2] is reported as “essential”.

B3: mutant sortase A: S. aureus Sortase A mutant lacking the N-terminal 59 amino acids, calcium independent and faster (SEQ ID NO: 4) (protein)
chain: MQAKPQIPKDKSKVAGYIEIPDADIKEPVYPGPATREQLNRGVSFAKENQSLDDQNISIAGHTFIDRPNYQFTNLKAAKKGSMVYFKVGNETRKYKMTSIRNVKPTAVEVLDEQKGKDKQLTLITCDDYNEETGVWETRKIFVATEVKLEHHHHHH
For B3, the “incubation time at which fluorescence was demonstrated” value [1, 2] was no more than 15 min, the “time to same labeling proportion with three-fold higher enzyme concentration” value ([1]; 120 μM versus 40 μM sortase) was “half of the time” and the “incubation time for complete labeling of scFV19 with TAMRA peptide” value ([1]; 50 mM Tris-Cl, pH 7.4, 150 mM NaCl buffer, 37° C.) was 45 ′. For the same molecule, the “reaction speed compared with wild-type sortase” value ([1]; 37°) was “faster”, the “specificity: serum proteins labeled with fluorophore” value ([1]; RPMI + 1% FBS) was “no proteins from the serum” and the “activity in culture media” value ([1]; RPMI supplemented with 1% FBS) was “active”. For the same molecule, the “calcium requirement for labeling of scFV19 with TAMRA peptide” value [1, 2] was “regardless of whether calcium was present”, the “fluorescence compared to reactions containing wild-type sortase” value ([1]; all three timepoints) was “Increased fluorescence” and the “incubation time for complete reaction” value ([1]; culture media (RPMI + 1% FBS), 37° C.) was 45 ′. For the same molecule, the “labeling differences between reactions in buffer or in culture media” value ([1]; reaction kinetics and fluorescence intensity) was “No major labeling differences”.

B4: scFV19.LPETG3K(TAMRA) conjugate (conjugate)
scFv: EIVMTQSPATLSLSPGERATLSCRASQDISKYLNWYQQKPGQAPRLLIYHTSRLHSGIPARFSGSGSGTDYTLTISSLQPEDFAVYFCQQGNTLPYTFGQGTKLEIKGGGGSGGGGSGGGGSQVQLQESGPGLVKPSETLSLTCTVSGVSLPDYGVSWIRQPPGKGLEWIGVIWGSETTYYSSSLKSRVTISKDNSKNQVSLKLSSVTAADTAVYYCAKHYYYGGSYAMDYWGQGTLVTVSSLPETGGGK
For B4, the “cell labeling by flow cytometry” value (CD19; untransduced K562 cells or K562 overexpressing CD19, 30 min at 4° C., control reaction without sortase) was “cell labeling was observed only with the conjugate and only on K562 cells expressing CD19”.
